Results as given in patent publication US20140057317A1 (Harvard, published 2014).
Changes are numbered by the printed parent chain. Names may count otherwise.

Key:
[1] = target: T1, human CD154 tagged with the LPETG sequence at its C terminus (human, UniProt P29965 1-261); experiment: cell-based or functional assay
T1 sequence: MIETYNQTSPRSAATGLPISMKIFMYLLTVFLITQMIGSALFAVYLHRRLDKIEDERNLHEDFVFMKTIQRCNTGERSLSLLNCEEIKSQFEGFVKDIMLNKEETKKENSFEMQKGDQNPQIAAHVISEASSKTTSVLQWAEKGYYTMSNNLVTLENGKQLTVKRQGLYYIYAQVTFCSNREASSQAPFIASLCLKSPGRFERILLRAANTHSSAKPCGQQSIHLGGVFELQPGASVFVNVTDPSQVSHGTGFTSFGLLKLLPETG

Abz-LPETGK(Dnp)-CONH2 = target: T2, Abz-LPETGK(Dnp)-CONH2
T2 chain: LPETGK

Gly-Gly-Gly-COOH (GGG) = target: T3, Gly-Gly-Gly-COOH (GGG)
T3 chain: GGG

[2] = target: LPESG (SEQ ID NO: 38) substrate
[3] = target: T4, LPETG (SEQ ID NO: 32) substrate
T4 chain: LPETG

B1: wild type S. aureus sortase A (enzyme)
chain: MQAKPQIPKDKSKVAGYIEIPDADIKEPVYPGPATPEQLNRGVSFAEENESLDDQNISIAGHTFIDRPNYQFTNLKAAKKGSMVYFKVGNETRKYKMTSIRDVKPTDVEVLDEQKGKDKQLTLITCDDYNEKTGVWEKRKIFVATEVKLEHHHHHH
[1]
  fluorescence of live HeLa cells labeled with GGGYK-biotin over background without enzyme, flow cytometry: ≤ 2.8 fold
Abz-LPETGK(Dnp)-CONH2
  kcat/Km LPETG: 200 M⁻¹ s⁻¹

B2: P94R/D160N/D165A/K190E/K196T srtA (protein)
chain: B1 chain with P36R, D102N, D107A, K132E, K138T
Abz-LPETGK(Dnp)-CONH2
  Km LPETG (fit of the one-hour time course, FIG. 16): Km LPETG=245±5 µM
  fold change in KM LPETG compared to the tetramutant: the kcat and KM LPETG were not altered by more than a factor of 1.3-fold
  fold higher kcat/KM LPETG compared with wild type srtA: a 120-fold higher kcat/KM LPETG
  kcat/Km LPETG: 23000 ± 3000 M⁻¹ s⁻¹
Gly-Gly-Gly-COOH (GGG)
  fold higher Km GGG compared with wild type srtA: a 20-fold higher Km GGG
  fold improvement in Km GGG compared to the tetramutant: the Km GGG of this mutant improved by 1.8-fold

B3: P94S/D160N/K196T srtA (enzyme)
chain: B1 chain with P36S, D102N, K138T
[1]
  median fluorescence (streptavidin-AlexaFluor594) of live HeLa cells labeled with GGGYK-biotin, flow cytometry: ≥ 30 fold
Abz-LPETGK(Dnp)-CONH2
  fold increase in KM LPETG compared to the tetramutant: 3 fold
  kcat/Km LPETG: 8600 ± 1500 M⁻¹ s⁻¹
Gly-Gly-Gly-COOH (GGG)
  fold improvement in Km GGG compared to the tetramutant: a 2.6-fold improvement in Km GGG

B4: srtA K196T (protein)
chain: B1 chain with K138T
Abz-LPETGK(Dnp)-CONH2
  kcat/Km LPETG: 400 M⁻¹ s⁻¹

B5: srtA P94S (protein)
chain: B1 chain with P36S
Abz-LPETGK(Dnp)-CONH2
  kcat/Km LPETG: 600 M⁻¹ s⁻¹

B6: srtA D165A (protein)
chain: B1 chain with D107A
Abz-LPETGK(Dnp)-CONH2
  kcat/Km LPETG: 700 M⁻¹ s⁻¹

B7: D160N/K190E/K196T (clone 4.2) (protein)
chain: B1 chain with D102N, K132E, K138T
Abz-LPETGK(Dnp)-CONH2
  fold enhancement in catalytic efficiency compared to wild type: an approximately 15-fold enhancement in catalytic efficiency at using the LPETG (SEQ ID NO: 32) substrate
  fold reduction in Km LPETG compared to wild type: a 5-7-fold reduction in Km LPETG
  kcat/Km LPETG: 2400 ± 700 M⁻¹ s⁻¹

B8: P94S/D165A (clone 4.3) (protein)
chain: B1 chain with P36S, D107A
Abz-LPETGK(Dnp)-CONH2
  fold enhancement in catalytic efficiency compared to wild type: an approximately 15-fold enhancement in catalytic efficiency at using the LPETG (SEQ ID NO: 32) substrate
  fold reduction in Km LPETG compared to wild type: a 5-7-fold reduction in Km LPETG
  kcat/Km LPETG: 2600 ± 100 M⁻¹ s⁻¹

B9: P94S/D160N/D165A/K196T sortase A (protein)
chain: B1 chain with P36S, D102N, D107A, K138T
Abz-LPETGK(Dnp)-CONH2
  fold decrease in KM LPETG compared to wild type: The 50-fold decrease in KM LPETG of the tetramutant compared to wild type
  fold improved LPETG recognition compared to wild type: 45-fold improved LPETG (SEQ ID NO: 32) recognition
  fold improvement in kcat/Km LPETG compared to wild type: a 140-fold improvement in its ability to convert LPETG (SEQ ID NO: 32) (kcat/Km LPETG)
  kcat/Km LPETG: 28000 ± 7000 M⁻¹ s⁻¹
Gly-Gly-Gly-COOH (GGG)
  fold increase in Km GGG compared to wild type: a 30-fold increase in Km GGG for the sortase A tetramutant

B10: P94S/D160N/D165A sortase A (protein)
chain: B1 chain with P36S, D102N, D107A
Abz-LPETGK(Dnp)-CONH2
  fold change in KM LPETG compared to the tetramutant: KM LPETG were not altered by more than a factor of 3-fold
  kcat/Km LPETG: 7500 ± 300 M⁻¹ s⁻¹
Gly-Gly-Gly-COOH (GGG)
  fold improvement in Km GGG compared to the tetramutant: the Km GGG of this mutant improved by 2.7-fold

B11: srtA D160N (protein)
chain: B1 chain with D102N
Abz-LPETGK(Dnp)-CONH2
  kcat/Km LPETG: 600 M⁻¹ s⁻¹

B12: Sortase 4S.4 (protein)
chain: QAKPQIPKDKSKVAGYIEIPDADIKELVYPGPATREQLSRGVSFTEENESLDDQNISITGHTSIGRPSYQFTNLRAAKKGSMVYFKVGNETRKYKMTSIRNVKPTAVEVLDEQEGKDEQLTLITCDDYNEETGVWETRKIFVATEVK
[2]
  activity against LPESG: activity against LPESG (SEQ ID NO: 38) comparable to the starting type pentamutant
  altered substrate specificity, LPESG against LPETG, as determined by Kcat/Km (HPLC-based substrate cleavage assay): remarkably altered substrate specificity (>4000-fold, as determined by Kcat/Km)
[3]
  activity against LPETG: completely abrogated activity against LPETG (SEQ ID NO: 32)

B13: optimized variant 4S.12.2 (protein)
chain: B12 chain with L27P, S68N
[2]
  activity against LPESG: activity against LPESG (SEQ ID NO: 38) comparable to the starting type pentamutant
[3]
  activity against LPETG: completely abrogated activity against LPETG (SEQ ID NO: 32)
